From patent US4605614A, “Method for measuring plasmin” (Nitto Boseki Co., Ltd., priority 1981, dated 1986)

What was measured:
Test in all cases: Km, Vmax and Vmax/Km of substrates for plasmin (pig)
Assay type in all cases: biochemical, Porcine (pig)
[1] = substrate: CC(=O)NCCCC[C@@H](N)C(=O)N[C@@H](Cc1ccccc1)C(=O)N[C@@H](CCCCN)C(=O)Nc1ccc(O)c(C(=O)O)c1; conditions: other: TABLE 2, CHA substrates, plasmin (pig), 2,6-xylenol 615 nm
[2] = substrate: CC(C)C[C@H](NC(=O)[C@H](N)C(C)C)C(=O)N[C@@H](CCCCN)C(=O)Nc1ccc(O)c(C(=O)O)c1; conditions: other: TABLE 2, CHA substrates, plasmin (pig), 2,6-xylenol 615 nm
[3] = substrate: CC(C)C[C@H](NC(=O)[C@H](N)C(C)C)C(=O)N[C@@H](CCCCN)C(=O)Nc1ccc([N+](=O)[O-])cc1
[4] = substrate: CC(C)[C@@H](N)C(=O)N[C@@H](Cc1ccccc1)C(=O)N[C@@H](CCCCN)C(=O)Nc1ccc(O)c(C(=O)O)c1; conditions: other: TABLE 2, CHA substrates, plasmin (pig), 2,6-xylenol 615 nm
[5] = substrate: CS(=O)(=O)NCCCC[C@@H](N)C(=O)N[C@@H](Cc1ccccc1)C(=O)N[C@@H](CCCCN)C(=O)Nc1ccc(O)c(C(=O)O)c1; conditions: other: TABLE 2, CHA substrates, plasmin (pig), 2,6-xylenol 615 nm
[6] = substrate: Cc1cc(C)c(S(=O)(=O)NCCCC[C@@H](N)C(=O)N[C@@H](Cc2ccccc2)C(=O)N[C@@H](CCCCN)C(=O)Nc2ccc(O)c(C(=O)O)c2)c(C)c1; conditions: other: TABLE 2, CHA substrates, plasmin (pig), 2,6-xylenol 615 nm
[7] = substrate: Cc1ccc(CCNC(=O)CC[C@@H](N)C(=O)N[C@@H](Cc2ccccc2)C(=O)N[C@@H](CCCCN)C(=O)Nc2ccc([N+](=O)[O-])cc2)cc1; conditions: other: TABLE 1, PNA substrates, plasmin (pig), 405 nm
[8] = substrate: Cc1ccc(CCOC(=O)CC[C@@H](N)C(=O)N[C@@H](Cc2ccccc2)C(=O)N[C@@H](CCCCN)C(=O)Nc2ccc([N+](=O)[O-])cc2)cc1; conditions: other: TABLE 1, PNA substrates, plasmin (pig), 405 nm
[9] = substrate: Cc1ccc(S(=O)(=O)NCC(=O)N2CCC[C@H]2C(=O)N[C@@H](CCCCN)C(=O)Nc2ccc([N+](=O)[O-])cc2)cc1
[10] = substrate: Cc1ccc(S(=O)(=O)Oc2ccc(C[C@@H](N)C(=O)N[C@@H](CC(C)C)C(=O)N[C@@H](CCCCN)C(=O)Nc3ccc(O)c(C(=O)O)c3)cc2)cc1; conditions: other: TABLE 2, CHA substrates, plasmin (pig), 2,6-xylenol 615 nm
[11] = substrate: NCCCC[C@H](NC(=O)[C@H](Cc1ccccc1)NC(=O)[C@H](N)CCC(=O)NCCCCc1ccccc1)C(=O)Nc1ccc([N+](=O)[O-])cc1; conditions: other: TABLE 1, PNA substrates, plasmin (pig), 405 nm
[12] = substrate: NCCCC[C@H](NC(=O)[C@H](Cc1ccccc1)NC(=O)[C@H](N)CCC(=O)NCCc1ccccc1)C(=O)Nc1ccc(O)c(C(=O)O)c1; conditions: other: TABLE 2, CHA substrates, plasmin (pig), 2,6-xylenol 615 nm
[13] = substrate: NCCCC[C@H](NC(=O)[C@H](Cc1ccccc1)NC(=O)[C@H](N)CCC(=O)OCCc1ccccc1)C(=O)Nc1ccc([N+](=O)[O-])cc1; conditions: other: TABLE 1, PNA substrates, plasmin (pig), 405 nm
[14] = substrate: NCCCC[C@H](NC(=O)[C@H](Cc1ccccc1)NC(=O)[C@H](N)CCCCNC(=O)c1ccc2ccccc2c1)C(=O)Nc1ccc(O)c(C(=O)O)c1; conditions: other: TABLE 2, CHA substrates, plasmin (pig), 2,6-xylenol 615 nm
[15] = substrate: NCCCC[C@H](NC(=O)[C@H](Cc1ccccc1)NC(=O)[C@H](N)CCCCNC(=O)c1ccccc1)C(=O)Nc1ccc(O)c(C(=O)O)c1; conditions: other: TABLE 2, CHA substrates, plasmin (pig), 2,6-xylenol 615 nm
[16] = substrate: NCCCC[C@H](NC(=O)[C@H](Cc1ccccc1)NC(=O)[C@H](N)CCCCNS(=O)(=O)c1ccc2ccccc2c1)C(=O)Nc1ccc([N+](=O)[O-])cc1; conditions: other: TABLE 1, PNA substrates, plasmin (pig), 405 nm
[17] = substrate: NCCCC[C@H](NC(=O)[C@H](Cc1ccccc1)NC(=O)[C@H](N)CCCCNS(=O)(=O)c1cccc2ccccc12)C(=O)Nc1ccc(O)c(C(=O)O)c1; conditions: other: TABLE 2, CHA substrates, plasmin (pig), 2,6-xylenol 615 nm
[18] = substrate: NCCCC[C@H](NC(=O)[C@H](Cc1ccccc1)NC(=O)[C@H](N)CCCCNS(=O)(=O)c1ccccc1)C(=O)Nc1ccc(O)c(C(=O)O)c1; conditions: other: TABLE 2, CHA substrates, plasmin (pig), 2,6-xylenol 615 nm
[19] = other: Porcine Plasmin, comparison table in description
[20] = other: TABLE 1, PNA substrates, plasmin (pig), 405 nm

B1: plasmin (pig) (Sus scrofa) (protein)
chain: RIYLSECKTGNGKNYRGTTSKTKSGVICQKWSVSSPHIPKYSPEKFPLAGLEENYCRNPDNDEKGPWCYTTDPETRFDYCDIPECEDECMHCSGEHYEGKISKTMSGIECQSWGSQSPHAHGYLPSKFPNKNLKMNYCRNPDGEPRPWCFTTDPNKRWEFCDIPRCTTPPPTSGPTYQCLKGRGENYRGTVSVTASGHTCQRWSAQSPHKHNRTPENFPCKNLEENYCRNPDGETAPWCYTTDSEVRWDYCKIPSCGSSTTSTEYLDAPVPPEQTPVAQDCYRGNGESYRGTSSTTITGRKCQSWVSMTPHRHEKTPGNFPNAGLTMNYCRNPDADKSPWCYTTDPRVRWEYCNLKKCSETEQQVTNFPAIAQVPSVEDLSEDCMFGNGKRYRGKRATTVAGVPCQEWAAQEPHRHSIFTPETNPRAGLEKNYCRNPDGDDNGPWCYTTNPQKLFDYCDVPQCVTSSFDCGKPKVEPKKCPARVVGGCVSIPHSWPWQISLRHRYGGHFCGGTLISPEWVLTAKHCLEKSSSPSSYKVILGAHEEYHLGEGVQEIDVSKLFKEPSEADIALLKLSSPAIITDKVIPACLPTPNYVVADRTACYITGWGETKGTYGAGLLKEARLPVIENKVCNRYEYLGGKVSPNELCAGHLAGGIDSCQGDSGGPLVCFEKDKYILQGVTSWGLGCALPNKPGVYVRVSRFVTWIEEIMRRN
Q: How did the Km [1] turn out when B1 was run?
A: 250 µM

Q: What about the Km [2] of the same protein?
A: 3.21 mM

Q: And the Km [3, 19]?
A: 348 µM

Q: And the Km [3, 20]?
A: 348 µM

Q: And the Km [4]?
A: 631 µM

Q: What about the Km [5] of the same protein?
A: 326 µM

Q: And the Km [6]?
A: 272 µM

Q: What about the Km [7] of the same protein?
A: 39.4 µM

Q: And the Km [8]?
A: 42.8 µM

Q: And the Km [9, 19]?
A: 278 µM

Q: And the Km [9, 20]?
A: 278 µM

Q: And the Km [10]?
A: 1440 µM

Q: And the Km [11]?
A: 45.4 µM

Q: What about the Km [12] of the same protein?
A: 397 µM

Q: What about the Km [13] of the same protein?
A: 31.1 µM

Q: What about the Km [14] of the same protein?
A: 325 µM

Q: What about the Km [15] of the same protein?
A: 334 µM

Q: And the Km [16]?
A: 17.9 µM

Q: What about the Km [17] of the same protein?
A: 596 µM

Q: What about the Km [18] of the same protein?
A: 532 µM
